Where two headings read alike, the source gives them in different places.
Key:
[1] = molecular target: hemagglutinin (HA) of influenza A/Victoria/2570/2019 H1N1 (influenza A virus A/Victoria/2570/2019 (H1N1)); test: cell-based or functional assay
[2] = molecular target: hemagglutinin (HA) of influenza A/Cambodia/e0826360/2020 H3N2 (influenza A virus A/Cambodia/e0826360/2020 (H3N2)); test: cell-based or functional assay
[3] = molecular target: hemagglutinin (HA) of influenza B/Phuket/3073/2013 B-Yam (influenza B virus B/Phuket/3073/2013); test: cell-based or functional assay
[4] = molecular target: hemagglutinin (HA) of influenza B/Washington/02/2019 B-Vic (influenza B virus B/Washington/02/2019); test: cell-based or functional assay
[5] = molecular target: hemagglutinin (HA) of influenza B/Austria/1359417/2021 (influenza B virus B/Austria/1359417/2021); test: cell-based or functional assay
[6] = molecular target: hemagglutinin (HA) of influenza B/Phuket/3073/2013 B-Yam (influenza B virus B/Phuket/3073/2013); test: cell-based or functional assay; remark: listed apart in the source
[7] = molecular target: hemagglutinin (HA) of influenza A/Brisbane/02/2018 H1N1 (influenza A virus A/Brisbane/02/2018 (H1N1)); test: cell-based or functional assay
[8] = molecular target: hemagglutinin (HA) of influenza A/Wisconsin/588/2019 (influenza A virus A/Wisconsin/588/2019); test: cell-based or functional assay
[9] = molecular target: hemagglutinin (HA) of influenza B/Colorado/06/2017 B-Vic (influenza B virus B/Colorado/06/2017); test: cell-based or functional assay
[10] = molecular target: hemagglutinin (HA) of influenza B/Washington/02/2019 B-Vic (influenza B virus B/Washington/02/2019); test: cell-based or functional assay; remark: listed apart in the source
[11] = molecular target: hemagglutinin (HA) of influenza A/Hawaii/70/2019 (influenza A virus A/Hawaii/70/2019); test: cell-based or functional assay
[12] = molecular target: hemagglutinin (HA) of influenza A/Tasmania/503/2020 (H3N2) (influenza A virus A/Tasmania/503/2020 (H3N2)); test: cell-based or functional assay
[13] = molecular target: hemagglutinin (HA) of influenza A/Singapore/INFIMH-16-0019/2016 H3N2 (influenza A virus A/Singapore/INFIMH-16-0019/2016 (H3N2)); test: cell-based or functional assay
[14] = molecular target: hemagglutinin (HA) of influenza A/Sydney/5/2021 (influenza A virus A/Sydney/5/2021); test: cell-based or functional assay
[15] = molecular target: hemagglutinin (HA) of influenza A/Darwin/6/2021 (influenza A virus A/Darwin/6/2021); test: cell-based or functional assay
[16] = molecular target: hemagglutinin (HA) of influenza A/Kansas/14/2017 H3N2 (influenza A virus A/Kansas/14/2017 (H3N2)); test: cell-based or functional assay
[17] = molecular target: hemagglutinin (HA) of influenza A/Brisbane/02/2018 H1N1 (influenza A virus A/Brisbane/02/2018 (H1N1)); test: cell-based or functional assay; remark: listed apart in the source
[18] = molecular target: hemagglutinin (HA) of influenza B/Colorado/06/2017 B-Vic (influenza B virus B/Colorado/06/2017); test: cell-based or functional assay; remark: listed apart in the source
[19] = molecular target: hemagglutinin (HA) of influenza A/Singapore/INFIMH-16-0019/2016 H3N2 (influenza A virus A/Singapore/INFIMH-16-0019/2016 (H3N2)); test: cell-based or functional assay; remark: listed apart in the source
[20] = molecular target: hemagglutinin (HA) of influenza B/California/12/2015 B-Yam (influenza B virus B/California/12/2015); test: cell-based or functional assay
[21] = molecular target: hemagglutinin (HA) of influenza B/Maryland/15/2016 B-Vic (influenza B virus B/Maryland/15/2016); test: cell-based or functional assay
[22] = molecular target: hemagglutinin (HA) of influenza A/Kansas/14/2017 H3N2 (influenza A virus A/Kansas/14/2017 (H3N2)); test: cell-based or functional assay; remark: listed apart in the source
[23] = tested on: influenza A/Anhui/1/2013 (H7N9) virus; set-up: species or system BALB/c mice; conditions: mouse, in vivo
[24] = molecular target: hemagglutinin (HA) of influenza A/Victoria/2570/2019 H1N1 (influenza A virus A/Victoria/2570/2019 (H1N1)); test: cell-based or functional assay; remark: listed apart in the source
[25] = molecular target: hemagglutinin (HA) of influenza A/Cambodia/e0826360/2020 H3N2 (influenza A virus A/Cambodia/e0826360/2020 (H3N2)); test: cell-based or functional assay; remark: listed apart in the source
[26] = molecular target: hemagglutinin (HA) of influenza A/Hong Kong/45/2019 H3N2 (influenza A virus A/Hong Kong/45/2019 (H3N2)); test: cell-based or functional assay
[27] = molecular target: hemagglutinin (HA) of influenza A/Hong Kong/45/2019 H3N2 (influenza A virus A/Hong Kong/45/2019 (H3N2)); test: cell-based or functional assay; remark: listed apart in the source

SAB-176 Lot 5 (PD2203294QR) (antibody)
HAI titer of drug substance [1]: 7680 titer
HAI titer of drug substance [2]: 3840 titer
HAI titer of drug substance [3]: 1920 titer
HAI titer of drug substance [4]: 3840 titer
HAI titer [5]: 40 titer
HAI titer [6]: 80 titer
HAI titer [7]: 1280 titer
HAI titer [8]: 1280 titer
HAI titer [9]: 160 titer
HAI titer [10]: 320 titer
HAI titer [11]: 1810 titer
HAI titer [12]: 640 titer
HAI titer [13]: 320 titer
HAI titer [14]: 1280 titer
HAI titer [15]: 320 titer
HAI titer [16]: 320 titer

SAB-176 Lot 3 (antibody)
HAI titer [1]: 256 titer
HAI titer ratio of SAB-176 to hIVIG [1]: 16 to 32 X
HAI titer [2]: 256 titer
HAI titer ratio of SAB-176 to hIVIG [2]: 8 to 16 X
HAI titer [3]: 128 titer
HAI titer ratio of SAB-176 to hIVIG [3]: 16 X
HAI titer [17]: 512 titer
HAI titer ratio of SAB-176 to hIVIG [17]: 16 to 32 X
HAI titer [18]: 256 titer
HAI titer ratio of SAB-176 to hIVIG [18]: 16 to 32 X
HAI titer [4]: 64 titer
HAI titer ratio of SAB-176 to hIVIG [4]: 8 to 16 X
HAI titer [19]: 512 titer
HAI titer ratio of SAB-176 to hIVIG [19]: 8 to 32 X
HAI titer [20]: 128 titer
HAI titer ratio of SAB-176 to hIVIG [20]: 16 to 32 X
HAI titer [21]: 128 titer
HAI titer ratio of SAB-176 to hIVIG [21]: 8 to 16 X
HAI titer [22]: 512 titer
HAI titer ratio of SAB-176 to hIVIG [22]: 16 to 128 X

CCOC(=O)C1=C[C@@H](OC(CC)CC)[C@H](NC(C)=O)[C@@H](N)C1 [oseltamivir]
protection from challenge (body weight) [23]: did show protection from challenge

SAB-176 Lot 4 (PD2102092QR) (antibody)
HAI titer ratio of SAB-176 to hIVIG [24]: 16 to 32 X
HAI titer ratio of SAB-176 to hIVIG [25]: 32 X
HAI titer [26]: 256 titer
HAI titer ratio of SAB-176 to hIVIG [26]: 16 to 32 X
HAI titer [1]: 256 titer
HAI titer [2]: 256 titer
HAI titer ratio of SAB-176 to hIVIG [2]: 8 to 16 X
HAI titer [3]: 128 titer
HAI titer of drug product [3]: 3840 titer
HAI titer ratio of SAB-176 to hIVIG [3]: 16 X
HAI titer [17]: 512 titer
HAI titer ratio of SAB-176 to hIVIG [17]: 16 to 32 X
HAI titer of drug product [27]: 1920 titer
HAI titer [18]: 256 titer
HAI titer ratio of SAB-176 to hIVIG [18]: 16 to 32 X
HAI titer [4]: 128 titer
HAI titer of drug product [4]: 960 titer
HAI titer ratio of SAB-176 to hIVIG [4]: 16 to 32 X
HAI titer [19]: 512 titer
HAI titer ratio of SAB-176 to hIVIG [19]: 8 to 32 X
HAI titer [20]: 128 titer
HAI titer ratio of SAB-176 to hIVIG [20]: 16 to 32 X
HAI titer [21]: 256 titer
HAI titer ratio of SAB-176 to hIVIG [21]: 16 to 32 X
HAI titer [22]: 256 titer
HAI titer ratio of SAB-176 to hIVIG [22]: 8 to 64 X
HAI titer [5]: 40 titer
HAI titer [6]: 160 titer
HAI titer [7]: 1280 titer
HAI titer [8]: 640 titer
HAI titer [9]: 160 titer
HAI titer [10]: 160 titer
HAI titer [11]: 905 titer
HAI titer [12]: 320 titer
HAI titer [13]: 640 titer
HAI titer [14]: 320 titer
HAI titer [15]: 160 titer
HAI titer [16]: 320 titer

SAB-176 Lot 6 (PD2204315QR) (antibody)
HAI titer of drug substance [1]: 7680 titer
HAI titer of drug substance [2]: 7680 titer
HAI titer of drug substance [3]: 1920 titer
HAI titer of drug substance [4]: 3840 titer
HAI titer [5]: 40 titer
HAI titer [6]: 160 titer
HAI titer [7]: 1280 titer
HAI titer [8]: 1280 titer
HAI titer [9]: 160 titer
HAI titer [10]: 320 titer
HAI titer [11]: 1810 titer
HAI titer [12]: 640 titer
HAI titer [13]: 320 titer
HAI titer [14]: 1280 titer
HAI titer [15]: 160 titer
HAI titer [16]: 320 titer

From patent US20240279315A1 (priority 2023, published 2024)
